Laboratory results as given in patent US20200283507A1 (US Dept. of Health and Human Services, published 2020).
Changes are numbered by the printed parent chain.

Tests used:
[1] = biological target: T1, Hu/NoV/GI.1/P7-587/2007/Stromstad/Sweden VLP (human norovirus GI.1); test: cell-based or functional assay
[2] = biological target: T2, Hu/NoV/GI.1/Norwalk/1968/U.S. VLP (human norovirus GI.1, UniProt Q83884 1-530 (Norovirus (strain entry), limits assumed)); test: cell-based or functional assay
T2 sequence (looked up): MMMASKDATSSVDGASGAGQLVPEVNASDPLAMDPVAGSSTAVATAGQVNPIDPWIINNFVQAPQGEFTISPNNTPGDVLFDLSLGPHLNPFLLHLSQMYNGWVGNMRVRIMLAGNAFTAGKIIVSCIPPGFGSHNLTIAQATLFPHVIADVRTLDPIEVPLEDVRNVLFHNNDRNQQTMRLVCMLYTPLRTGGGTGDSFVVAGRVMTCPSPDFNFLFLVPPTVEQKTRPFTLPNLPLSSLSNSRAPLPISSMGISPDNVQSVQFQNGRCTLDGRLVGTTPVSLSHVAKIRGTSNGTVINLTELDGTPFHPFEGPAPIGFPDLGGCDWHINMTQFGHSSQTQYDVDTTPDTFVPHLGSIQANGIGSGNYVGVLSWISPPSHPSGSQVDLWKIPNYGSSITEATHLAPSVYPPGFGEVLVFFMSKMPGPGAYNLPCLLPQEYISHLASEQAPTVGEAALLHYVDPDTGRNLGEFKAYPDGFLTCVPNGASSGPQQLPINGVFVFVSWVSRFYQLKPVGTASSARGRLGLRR

[3] = biological target: T3, Hu/NoV/GI.3/Desert-Shield395/1990/U.S. VLP (human norovirus GI.3); test: VLP ELISA
T3 construct: mature; baculovirus VLP; VP2 may be present

[4] = biological target: T1, Hu/NoV/GI.1/P7-587/2007/Stromstad/Sweden …; test: VLP ELISA
[5] = biological target: T2, Hu/NoV/GI.1/Norwalk/1968/U.S. VLP; test: VLP ELISA
[6] = biological target: T4, Hu/NoV/GII.4/MD145-12/1997/U.S. VLP (human norovirus GII.4); test: blockade ELISA: VLP binding to synthetic HBGA H3
T4 construct: mature; baculovirus VLP; VP2 may be present

[7] = biological target: T4, Hu/NoV/GII.4/MD145-12/1997/U.S. VLP; test: cell-based or functional assay
[8] = biological target: T5, Hu/NoV/GII.4/MD2004/2004/U.S. VLP (human norovirus GII.4); test: cell-based or functional assay
[9] = biological target: T4, Hu/NoV/GII.4/MD145-12/1997/U.S. VLP; test: blockade ELISA: VLP binding to saliva Ly+
Protocol: (§1) For this assay saliva positive for Ly antigen collected from a secretor individual was used. Saliva was boiled (95° C.) for 10 minutes immediately after collection, centrifuged for 5 minutes at 13000×g and the supernatants stored at −20° C. until used. ELISA 96 well U bottom polyvinyl plates Dynatech (Nunc, Thermo, EEUU) were coated with 100 μl/well of a 1/400 saliva dilution in 50 μM carbonate-bicarbonate buffer, pH 9.6. The plate was incubated overnight at 37° C. in a wet atmosphere. In parallel, serial two-fold dilutions of VHH starting from 8 ug/ml were mixed with 1.5 ug/ml of NoV VLP Norwalk and MD145 and incubated for 1h at 37° C. After 6 washes and a blocking step with 5% dry milk/0.05% Tween₂₀-PBS, 50 ul of each VHH-VLP mixture was transferred to the reaction plate, in duplicate. The assay was developed using a specific polyclonal antiserum made in guinea pig (1:10,000) followed by a peroxidase labeled anti-guinea pig IgG (1:2,000) and ABTS/H₂O₂ as substrate chromogen (KPL), 100 μl per well. Absorbance at 405 nm was measured. Mean % control binding, EC50 and criteria for determination of a blockade VHH were calculated as described above.

[10] = biological target: T5, Hu/NoV/GII.4/MD2004/2004/U.S. VLP; test: blockade ELISA: VLP binding to PGM type III
Protocol: (§2) Pig Gastric Mucin Type III (PGM) (Sigma Chemicals) was used as a substrate for NoV VLP antibody-blockade assay as previously described. Briefly, PGM was resuspended in PBS at 5 mg/ml and coated onto 96 well U bottom polyvinyl plates Dynatech (Nunc, Thermo, USA) at 10 μg/ml in PBS for 4 hours. Plates were then blocked ON at 4° C. in 5% dry milk in 0.05% Tween₂₀-PBS. […] One hundred μl of VLPs-VHH mix were transferred to the PGM coated plates and incubated for 1 hour. Bound VLPs were detected by specific hyperimmune sera made in guinea pig, followed by anti-guinea pig IgG-HRP (KLP). ABTS/H₂O₂ was used as chromogen/substrate solution. All incubations were performed at room temperature and absorbance at 405 nm was measured. Mean % control binding, EC50 and criteria for determination of a blockade VHH were calculated as described above.

[11] = biological target: T4, Hu/NoV/GII.4/MD145-12/1997/U.S. VLP; test: VLP ELISA
[12] = biological target: T6, Hu/NoV/GII.2/Henryton/1971/U.S. VLP (human norovirus GII.2); test: VLP ELISA
T6 construct: mature; baculovirus VLP; VP2 may be present

[13] = biological target: T7, Hu/NoV/GII.4/HS-191/2001/U.S. VLP (human norovirus GII.4); test: VLP ELISA
T7 construct: mature; baculovirus VLP; VP2 may be present

[14] = biological target: T8, Hu/GII.6/Bethesda/2012/U.S. VLP (human norovirus GII.6); test: VLP ELISA
T8 construct: mature; baculovirus VLP; VP2 may be present

[15] = biological target: T9, Hu/NoV/GII.3/CHDC4031/1988/U.S. VLP (human norovirus GII.3); test: VLP ELISA
T9 construct: mature; baculovirus VLP; VP2 may be present

[16] = biological target: T10, Hu/NoV/GII.4/CHDC4871/1977/U.S. VLP (human norovirus GII.4); test: VLP ELISA
T10 construct: mature; baculovirus VLP; VP2 may be present

[17] = biological target: T11, Hu/NoV/GII.4/RockvilleD1/2012/U.S. VLP (human norovirus GII.4); test: VLP ELISA
T11 construct: mature; baculovirus VLP; VP2 may be present

[18] = biological target: T12, Hu/NoV/GII.7/DC119/U.S. VLP (human norovirus GII.7); test: VLP ELISA
T12 construct: mature; baculovirus VLP; VP2 may be present

[19] = biological target: T5, Hu/NoV/GII.4/MD2004/2004/U.S. VLP; test: VLP ELISA
[20] = biological target: T13, Hu/NoV/Snow Mountain/GII.2/U.S. VLP (human norovirus GII.2); test: VLP ELISA
T13 construct: mature; baculovirus VLP; VP2 may be present

[21] = biological target: T14, Hu/NoV/GII.1/Hawaii/1971/U.S. VLP (human norovirus GII.1); test: VLP ELISA
T14 construct: mature; baculovirus VLP; VP2 may be present

[22] = biological target: T2, Hu/NoV/GI.1/Norwalk/1968/U.S. VLP; test: blockade ELISA: VLP binding to synthetic HBGA H1
[23] = biological target: T2, Hu/NoV/GI.1/Norwalk/1968/U.S. VLP; test: blockade ELISA: VLP binding to saliva Ly+
Protocol: as §1

[24] = biological target: T2, Hu/NoV/GI.1/Norwalk/1968/U.S. VLP; test: blockade ELISA: VLP binding to PGM type III
Protocol: as §2

B1: VHH 7.3 (VHH)
VHH: QVKLQESGGGLVQPGGSLRLSCTASRSIFTRAMAWYRQAPGKQRELVAAIDSGDRTHYADSVKGRFTISRNNAKDTLYLQMNSLKSEDTAVYYCNANLGALLDYWGQGTQVTVSS
notes: llama VHH, Norwalk library; pHEN6, C-terminal His6 tag; also called clone 7.3
For B1, which “HAI titer, 0 Rh- RBC” value [1] is on record?
Its value is 0.05 µg/mL.

What about the “HAI titer, 0 Rh- RBC” value [2] of the same binder?
The value was 0.39 µg/mL.

What about the “minimum concentration of VHH able to recognize 100 ng of VLP” value (“minimum concentration of VHH able” below) [3] of the same binder?
Its value is 0.5 ng/well.

And the “minimum concentration of VHH able” value [4]?
The value was 0.5 ng/well.

What about the “minimum concentration of VHH able” value [5] of the same binder?
Its value is 0.5 ng/well.

B2: VHH 5.4 (VHH)
VHH: QVQLQQSGGGLVQPGGSLRLSCVASESTVSINIMGWYRQAPGKQRELVATITTGGTTNYADSVKGRFTISRDNAKNTVYLQMNSLEPEDTAVYYCNLKRRDLQARFGGYWGQGTQVTVSS
notes: llama VHH, MD2004 library; pHEN6, C-terminal His6 tag; also called clone 5.4
How did the EC50 [6] turn out when B2 was run?
The EC50 was 0.718 µg/mL.

What about the “HAI titer, B Rh+ RBC” value [7] of the same binder?
Its value is 0.39 µg/mL.

What about the “HAI titer, B Rh+ RBC” value [8] of the same binder?
Its value is 0.39 µg/mL.

And the EC50 [9]?
Its EC50 is 1.27 µg/mL.

And the EC50 [10]?
The EC50 was 2.02 µg/mL.

And the “minimum concentration of VHH able” value [11]?
Its value is 4 ng/well.

What about the “minimum concentration of VHH able” value [12] of the same binder?
The value was 2 ng/well.

What about the “minimum concentration of VHH able” value [13] of the same binder?
The value was 0.25 ng/well.

And the “minimum concentration of VHH able” value [14]?
Its value is 1 ng/well.

And the “minimum concentration of VHH able” value [15]?
The value was 0.5 ng/well.

What about the “minimum concentration of VHH able” value [16] of the same binder?
Its value is 0.5 ng/well.

And the “minimum concentration of VHH able” value [17]?
Its value is 0.5 ng/well.

And the “minimum concentration of VHH able” value [18]?
Its value is 0.5 ng/well.

And the “minimum concentration of VHH able” value [19]?
Its value is 1 ng/well.

What about the “minimum concentration of VHH able” value [20] of the same binder?
Its value is 2 ng/well.

What about the “minimum concentration of VHH able” value [21] of the same binder?
Its value is 1 ng/well.

B3: VHH 4.1 (VHH)
VHH: B2 VHH with Q3K, V23A, V29I, I33T, M34L, K43N, S84N, E88G, A104S
notes: llama VHH, MD2004 library; pHEN6, C-terminal His6 tag; also called clone 4.1
With B3 as the binder, how does the EC50 [6] read?
The EC50 was 0.712 µg/mL.

What about the “HAI titer, B Rh+ RBC” value [7] of the same binder?
The value was 0.39 µg/mL.

And the “HAI titer, B Rh+ RBC” value [8]?
The value was 0.19 µg/mL.

What about the EC50 [9] of the same binder?
Its EC50 is 1.38 µg/mL.

And the EC50 [10]?
The EC50 was 2.91 µg/mL.

And the “minimum concentration of VHH able” value [11]?
Its value is 2 ng/well.

And the “minimum concentration of VHH able” value [12]?
Its value is 1 ng/well.

And the “minimum concentration of VHH able” value [13]?
Its value is 0.5 ng/well.

What about the “minimum concentration of VHH able” value [14] of the same binder?
The value was 2 ng/well.

What about the “minimum concentration of VHH able” value [15] of the same binder?
Its value is 2 ng/well.

And the “minimum concentration of VHH able” value [16]?
The value was 0.5 ng/well.

What about the “minimum concentration of VHH able” value [17] of the same binder?
The value was 1 ng/well.

What about the “minimum concentration of VHH able” value [18] of the same binder?
Its value is 0.5 ng/well.

What about the “minimum concentration of VHH able” value [19] of the same binder?
Its value is 2 ng/well.

And the “minimum concentration of VHH able” value [20]?
Its value is 2 ng/well.

What about the “minimum concentration of VHH able” value [21] of the same binder?
The value was 1 ng/well.

B4: VHH 13.1 (VHH)
VHH: QVKLQESGGGWVQAGGSLRLSCAASALTASITTMGWFRQTPEKEREFLAAINWTGDYKYYADSVKGRFTISRDNAKNTVDLQMNQLKPEDTAVYYCAASKIRNDIYLNDYTWYQYWGQGTQVTVSS
notes: llama VHH, Norwalk library, subtractive biopanning; His6 tag; also called 13.2; clone 13
Which EC50 [22] does the source give for B4 here?
The EC50 was 2.03 µg/mL.

What about the “HAI titer, 0 Rh- RBC” value [2] of the same binder?
Its value is 0.19 µg/mL.

What about the EC50 [23] of the same binder?
Its EC50 is 2.27 µg/mL.

And the EC50 [24]?
Its EC50 is 1.29 µg/mL.

And the “minimum concentration of VHH able” value [5]?
Its value is 2 ng/well.

B5: VHH 6.3 (VHH)
VHH: QVQLQQSGGGLVQPGGSLRLSCAASGSIFSIHTMGWYRQAPGKQRELVTTITTGGTTNYADSVKGRFTISRDDAKNTVYLQMNNLKPEDTAVYYCYALIQTASTTWYRQYWGQGTQVTVSS
notes: llama VHH, Norwalk (GI.1) library; also called clone 6.3
How did the EC50 [22] turn out when B5 was run?
Its EC50 is 1.01 µg/mL.

And the “HAI titer, 0 Rh- RBC” value [1]?
The value was 0.05 µg/mL.

What about the “HAI titer, 0 Rh- RBC” value [2] of the same binder?
The value was 0.19 µg/mL.

What about the EC50 [23] of the same binder?
Its EC50 is 2.04 µg/mL.

And the EC50 [24]?
Its EC50 is 0.661 µg/mL.

What about the “minimum concentration of VHH able” value [4] of the same binder?
Its value is 0.5 ng/well.

And the “minimum concentration of VHH able” value [5]?
The value was 0.5 ng/well.
